{"source": "patent US7645449B2", "about": "“Sensitizing cells for apoptosis by selectively blocking cytokines” (priority 2003, dated 2010)", "molecules": {"B1": {"name": "IL-4: human recombinant IL-4 (protein, UniProt P05112 25-153, looked up)", "Interleukin-4": "HKCDITLQEIIKTLNSLTEQKTLCTELTVTDIFAASKNTTEKETFCRAATVLRQFYSHHEKDTRCLGATAQQFHRHKQLIRFLKRLDRNLWGLAGLNSCPVKEANQSTLENFLERLKTIMREKYSKCSS"}}, "format_in_all_cases": "cell-based, human", "key": {"[1]": {"system": "normal thyrocytes", "experiment": "Cytokine protection of normal thyrocytes from chemotherapy-induced apoptosis", "settings": "48 h pre-treatment, rhIL-4 20 ng/ml or rhIL-10 40 ng/ml, then drugs for 12 h", "experimental": "Thyroid cell purification and culture. Thyroid tissues from normal, PTC, FTC and UTC were digested for 2 hours with collagenase (1.5 mg/ml) (Gibco BRL, Grand Island, N.Y.) and hyaluronidase (20 μg/ml) (Sigma Chemical Co., St. Louis, Mo.) in DMEM. Thyrocytes were purified from the digested tissues by hematopoietic cell depletion with anti-CD45-coupled beads (Dynal, Wirral Merseyside, U.K.) and 12 hours of flask adherence, which allowed removal of other cells. After additional 12 hours of culture, thyroid cells were allowed to grow in monolayer for the immunocytochemistry or detached with trypsin+EDTA following exposure to cytokines or chemotherapeutic agents for functional and protein analyses. […]\nCell death quantitation. Apoptotic events of neoplastic thyrocytes were evaluated by DNA staining and flow cytometry analysis. […] The percentage of hypodiploid nuclei was evaluated as previously described. […] The number of viable cells was detected by CellTiter Aqueous Assay Kit (Promega Corporation, WI, USA) adding 20 μl of solution reagent directly to culture wells, incubating for 1 hours at 37° C. and recording absorbance at 490 nm. […]"}, "[2]": {"system": "cFlip/FLAME-1 in MDA-MB-231 cells", "experiment": "Immunoblot of Bcl-XL and cFlip/FLAME-1 in MDA-MB-231 cells", "settings": "following IL-4 treatment", "experimental": "The observation that prostate and breast tumor cells treated with IL-4 display a reduced sensitivity to death induced by CD95 and chemotherapeutic drugs led us to investigate whether this cytokine would influence the expression of apoptosis regulatory genes. […] Therefore, IL-4-mediated increased survival in bladder, prostate and breast cancer cells is associated with upregulation of anti-apoptotic proteins.\nCell pellets were washed twice with cold PBS and lysed on ice for 30 minutes with 1% NP40 lysis buffer (20 mM Tris-HCl pH 7.2, 200 mM NaCl, 1% NP40) in the presence of 1 mM phenylmethylsulphonyl fluoride (PMSF) and 2 μg/ml each of aprotinin, leupeptin and pepstatin. Cell debris was removed by centrifugation at 13,000 rpm for 10 minutes at 4° C. Lysate concentration was determined using the Bio-Rad protein assay (Bio-Rad Laboratories, Richmond, Calif.). Aliquots of cell extracts containing 30 μg of total protein were resolved on 10% or 12% SDS-PAGE and transferred to a Hybond-C extra nitrocellulose membrane (Amersham Pharmacia Biotech, Piscataway, N.J.). […]"}, "[3]": {"system": "LNCaP prostate cancer cells", "experiment": "MTS viability of LNCaP cells: chemotherapy- and anti-CD95-induced apoptosis", "experimental": "Human LNCAP prostate cancer cell line and human MDA-MB-231 breast cancer cell line were obtained from the American Type Culture Collection (ATCC, Manassas, Va.). Human RT112 bladder carcinoma cell line was kindly provided by Dr. M. Cippitelli (Regina Elena Cancer Institute, Rome, Italy). Cells were grown in RPMI 1640 (Life Technologies Inc., Grand Island, N.Y.) containing 10% heat inactivated fetal bovine serum supplemented with L-Glutamine 2 mM and 100 units/ml Penicillin-Streptomycin. Cells were kept in 5% CO2 atmosphere and routinely passaged when 80-85% confluent. […]\nCell viability was determined using the CellTiter 96® AQueous One Solution Cell Proliferation Assay (Promega, Madison, Wis.), according to the manufacturer's instructions. The assay is based on reduction of 3-(4,5-dimethylthiazol-2-yl)-5-(3-carboxymethoxyphenyl)-2-(4-sulfophenyl)-2H-tetrazolium, inner salt (MTS) to a colored formazan product that is measured spectrophotometrically. […] After 3 hours of incubation at 37° C. with the MTS reagent, the plates were read on a Multilabel Counter (Victor2, Wallac, Perkin-Ehmer Inc., Norwalk, Conn.) and dye absorbance was measured at 490 nm.\nThe percentage of apoptotic cells was derived from the percentage of viable cells that was directly calculated from the values of the MTS assay."}}, "data": [{"molecule": "B1", "values": [{"measurement": "prevention of death of normal thyrocytes exposed to cisplatinum, doxorubicin and taxol", "setting": "[1]", "value": "drastically prevented death"}, {"measurement": "cFlip/FLAME-1 level in MDA-MB-231 cells", "setting": "[2]", "value": "only a modest increase"}, {"measurement": "anti-CD95-induced apoptosis of LNCaP cells", "setting": "[3]; cytokine pretreatment, 30 ng/ml anti-CD95 agonistic antibody", "value": "greatly reduced anti-CD95-induced apoptosis"}, {"measurement": "drug-induced death of LNCaP cells", "setting": "[3]; two days cytokine pretreatment (20 ng/ml), 300 ng/ml cisplatin or 1 μM vincristine", "value": "significantly protected from drug-induced death"}]}]}
